In PMC12416549 (2024):
Residue numbers refer to the chain shown, from its start. Names and notes keep the numbering of the source.

T1: TNFR1 (Homo sapiens, UniProt P19438)
T1 chain: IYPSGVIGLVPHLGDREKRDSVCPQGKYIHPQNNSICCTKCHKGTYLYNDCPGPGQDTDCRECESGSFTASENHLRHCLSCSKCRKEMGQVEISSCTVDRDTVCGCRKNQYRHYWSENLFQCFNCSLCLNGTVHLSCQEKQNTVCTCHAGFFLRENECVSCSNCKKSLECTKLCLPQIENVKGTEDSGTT

B1: E37Y (designed binder)
chain: SMEEEVEKAAKEYEKKKKEAIEKHLEKLKAKDKEAAYRFLKELEEAAKEYAKDEAKTMSEEEAKRRAKKYKEKVLLSELSEEEQKEIKEAEEKLVRTILKYVEEAAK
B2: A67W (designed binder)
chain: B1 chain with Y37E, A67W
B3: D32R (designed binder)
chain: B1 chain with D32R, Y37E
B4: A36Y (designed binder)
chain: B1 chain with A36Y, Y37E
B5: L94K (designed binder)
chain: B1 chain with Y37E, L94K
B6: E14A (designed binder)
chain: B1 chain with E14A, Y37E
B7: K69F (designed binder)
chain: B1 chain with Y37E, K69F
B8: K56R (designed binder)
chain: B1 chain with Y37E, K56R
B9: E22S (designed binder)
chain: B1 chain with E22S, Y37E
B10: L43P (designed binder)
chain: B1 chain with Y37E, L43P
B11: T57E (designed binder)
chain: B1 chain with Y37E, T57E
B12: K68H (designed binder)
chain: B1 chain with Y37E, K68H
B13: I21M (designed binder)
chain: B1 chain with I21M, Y37E
B14: R65P (designed binder)
chain: B1 chain with Y37E, R65P
B15: K56Q (designed binder)
chain: B1 chain with Y37E, K56Q
B16: V74I (designed binder)
chain: B1 chain with Y37E, V74I
B17: L94N (designed binder)
chain: B1 chain with Y37E, L94N
B18: E86C (designed binder)
chain: B1 chain with Y37E, E86C
B19: V102K (designed binder)
chain: B1 chain with Y37E, V102K
B20: R38H (designed binder)
chain: B1 chain with Y37E, R38H
B21: K107R (designed binder)
chain: B1 chain with Y37E, K107R
B22: R65W (designed binder)
chain: B1 chain with Y37E, R65W
B23: L99Q (designed binder)
chain: B1 chain with Y37E, L99Q
B24: V6E (designed binder)
chain: B1 chain with V6E, Y37E
B25: K15G (designed binder)
chain: B1 chain with K15G, Y37E
B26: L76H (designed binder)
chain: B1 chain with Y37E, L76H
B27: A67I (designed binder)
chain: B1 chain with Y37E, A67I
B28: R65I (designed binder)
chain: B1 chain with Y37E, R65I
B29: T97W (designed binder)
chain: B1 chain with Y37E, T97W
B30: E22R (designed binder)
chain: B1 chain with E22R, Y37E
B31: E60F (designed binder)
chain: B1 chain with Y37E, E60F
B32: K73S (designed binder)
chain: B1 chain with Y37E, K73S
B33: M58F (designed binder)
chain: B1 chain with Y37E, M58F
B34: L94C (designed binder)
chain: B1 chain with Y37E, L94C
B35: K56W (designed binder)
chain: B1 chain with Y37E, K56W
B36: K23G (designed binder)
chain: B1 chain with K23G, Y37E
B37: A9D (designed binder)
chain: B1 chain with A9D, Y37E
B38: E5H (designed binder)
chain: B1 chain with E5H, Y37E
B39: V95D (designed binder)
chain: B1 chain with Y37E, V95D
B40: K48V (designed binder)
chain: B1 chain with Y37E, K48V
B41: K93N (designed binder)
chain: B1 chain with Y37E, K93N
B42: T57S (designed binder)
chain: B1 chain with Y37E, T57S
B43: L40V (designed binder)
chain: B1 chain with Y37E, L40V
B44: L99S (designed binder)
chain: B1 chain with Y37E, L99S
B45: L43F (designed binder)
chain: B1 chain with Y37E, L43F
B46: K52Q (designed binder)
chain: B1 chain with Y37E, K52Q
B47: K107F (designed binder)
chain: B1 chain with Y37E, K107F
B48: E26C (designed binder)
chain: B1 chain with E26C, Y37E
B49: E44Y (designed binder)
chain: B1 chain with Y37E, E44Y
B50: D53H (designed binder)
chain: B1 chain with Y37E, D53H
B51: K69R (designed binder)
chain: B1 chain with Y37E, K69R
B52: K17N (designed binder)
chain: B1 chain with K17N, Y37E
B53: E91H (designed binder)
chain: B1 chain with Y37E, E91H
B54: M58S (designed binder)
chain: B1 chain with Y37E, M58S
B55: K85E (designed binder)
chain: B1 chain with Y37E, K85E
B56: E82W (designed binder)
chain: B1 chain with Y37E, E82W
B57: E34T (designed binder)
chain: B1 chain with E34T, Y37E
B58: A47D (designed binder)
chain: B1 chain with Y37E, A47D
B59: E12V (designed binder)
chain: B1 chain with E12V, Y37E

Target: T1, TNFR1
Experiment: yeast display SC50

apparent Kd (screen) [nM] | Binder
0.49 | B1
10.4 | B2
3.99 | B3
0.539 | B4
1.4 | B5
3 | B6
0.869 | B7
1.54 | B8
0.539 | B9
12.5 | B10
3 | B11
1.4 | B12
0.539 | B13
20.2 | B14
2.73 | B15
0.446 | B16
20.2 | B17
0.653 | B18
1.27 | B19
1.4 | B20

apparent Kd (screen) [nM] | Binder
1.54 | B21
11.4 | B22
11.4 | B23
11.4 | B24
0.653 | B25
1.69 | B26
7.07 | B27
1.4 | B28
2.48 | B29
0.446 | B30
0.956 | B31
9.41 | B32
11.4 | B33
2.73 | B34
11.4 | B35
0.446 | B36
1.16 | B37
0.446 | B38
5.84 | B39
0.653 | B40

apparent Kd (screen) [nM] | Binder
1.27 | B41
1.27 | B42
0.49 | B43
11.4 | B44
13.8 | B45
0.718 | B46
3 | B47
0.49 | B48
1.54 | B49
1.69 | B50
1.27 | B51
2.73 | B52
4.39 | B53
4.39 | B54
0.446 | B55
0.539 | B56
0.446 | B57
1.16 | B58
0.956 | B59
